# Data: IntAct's records for PubMed 23706742
# Target: pk3cb_mouse Pik3cb (UniProt Q8BTI9)
substance,measurement,value
Ras-related C3 botulinum toxin substrate 1 (Mus musculus) (from UniProt P63001) I33D,effect of a mutation on the interaction,decreasing interaction strength
